Data taken from article PMC6443806 (Scientific Reports, 2019).
One block for each molecule: values may come before it.

How the values were obtained:
His54 = His54 (UniProt position 515, KNAVRHNLSLA); assay: stability (GdmCl equilibrium unfolding followed by intrinsic Trp fluorescence) with Wyman-Tanford linkage analysis; conditions: 37 °C, Not stated for the unfolding buffer (standard buffer contains 150 mM NaCl). GdmCl 0-6 M in the unfolding series., buffer at different pH values (composition not restated; standard buffer is 20 mM HEPES, 150 mM NaCl, 2 mM β-mercaptoethanol) supplemented with GdmCl, DNA-free
His59 [1] = target: T1, His59 (UniProt position 520, HNLSLHKCFVR); assay: kinetics (SEC-monitored dimer dissociation) with Wyman-Tanford linkage analysis; conditions: 37 °C, 150 mM NaCl, standard buffer (20 mM HEPES, 150 mM NaCl, 2 mM β-mercaptoethanol) adjusted to different pH values, DNA-free
His59 [2] = target: T1, His59; assay: stability (GdmCl equilibrium unfolding followed by intrinsic Trp fluorescence) with Wyman-Tanford linkage analysis; conditions: 37 °C, Not stated for the unfolding buffer (standard buffer contains 150 mM NaCl). GdmCl 0-6 M in the unfolding series., buffer at different pH values (composition not restated; standard buffer is 20 mM HEPES, 150 mM NaCl, 2 mM β-mercaptoethanol) supplemented with GdmCl, DNA-free
[3] = target: forkhead domain of human FoxP1, H59A mutant (human); assay: SEC; isolated dimer diluted to 5 μM in standard buffer (20 mM HEPES, 150 mM NaCl, 2 mM β-mercaptoethanol) at pH 5.0, 37 °C, aliquots over 2 h on Superdex 75; dimer to monomers; Kd from the equilibrium dimer fraction, koff from a single exponential decay, kon derived from Kd = koff/kon
[4] = target: forkhead domain of human FoxP1, H59A mutant (human); assay: SEC; isolated dimer diluted to 5 μM in standard buffer (20 mM HEPES, 150 mM NaCl, 2 mM β-mercaptoethanol) at pH 6.0, 37 °C, aliquots over 2 h on Superdex 75; dimer to monomers; Kd from the equilibrium dimer fraction, koff from a single exponential decay, kon derived from Kd = koff/kon
[5] = target: forkhead domain of human FoxP1, H59A mutant (human); assay: SEC; isolated dimer diluted to 5 μM in standard buffer (20 mM HEPES, 150 mM NaCl, 2 mM β-mercaptoethanol) at pH 7.8, 37 °C, aliquots over 2 h on Superdex 75; dimer to monomers; Kd from the equilibrium dimer fraction, koff from a single exponential decay, kon derived from Kd = koff/kon
[6] = target: the molecule itself; assay: SEC; isolated dimer diluted to 5 μM in standard buffer (20 mM HEPES, 150 mM NaCl, 2 mM β-mercaptoethanol) at pH 5.0, 37 °C, aliquots over 2 h on Superdex 75; dimer to monomers; Kd from the equilibrium dimer fraction, koff from a single exponential decay, kon derived from Kd = koff/kon
[7] = target: the molecule itself; assay: SEC; isolated dimer diluted to 5 μM in standard buffer (20 mM HEPES, 150 mM NaCl, 2 mM β-mercaptoethanol) at pH 5.5, 37 °C, aliquots over 2 h on Superdex 75; dimer to monomers; Kd from the equilibrium dimer fraction, koff from a single exponential decay, kon derived from Kd = koff/kon
[8] = target: the molecule itself; assay: SEC; isolated dimer diluted to 5 μM in standard buffer (20 mM HEPES, 150 mM NaCl, 2 mM β-mercaptoethanol) at pH 6.0, 37 °C, aliquots over 2 h on Superdex 75; dimer to monomers; Kd from the equilibrium dimer fraction, koff from a single exponential decay, kon derived from Kd = koff/kon
[9] = target: the molecule itself; assay: SEC; isolated dimer diluted to 5 μM in standard buffer (20 mM HEPES, 150 mM NaCl, 2 mM β-mercaptoethanol) at pH 7.0, 37 °C, aliquots over 2 h on Superdex 75; dimer to monomers; Kd from the equilibrium dimer fraction, koff from a single exponential decay, kon derived from Kd = koff/kon
[10] = target: the molecule itself; assay: SEC; isolated dimer diluted to 5 μM in standard buffer (20 mM HEPES, 150 mM NaCl, 2 mM β-mercaptoethanol) at pH 7.8, 37 °C, aliquots over 2 h on Superdex 75; dimer to monomers; Kd from the equilibrium dimer fraction, koff from a single exponential decay, kon derived from Kd = koff/kon
[11] = monomeric folding intermediate (I)

Molecule: Forkhead box protein P1 (FoxP1), forkhead DNA-binding domain, H59A mutant (Homo sapiens; H59A)
- pKa (His54; [11]): 5.3
- pKa (His54; unfolded state (U)): 5.9

Molecule: Forkhead box protein P1 (FoxP1), forkhead DNA-binding domain, wild type (Homo sapiens)
- pKa (His59 [1]; domain-swapped dimer (D)): 5.5
- pKa (His59 [1]; monomer (M)): 7.3
- pKa (His59 [1]; transition state (‡) for domain swapping): 5.5
- pKa (His59 [2]; [11]): 5.7
- pKa (His59 [2]; unfolded state (U)): 7.7

- Kd [3]: 7.9 µM
- koff [3]: 0.000988 s⁻¹
- kon [3]: 125 M⁻¹ s⁻¹
- Kd [4]: 5.9 µM
- koff [4]: 0.000628 s⁻¹
- kon [4]: 107 M⁻¹ s⁻¹
- Kd [5]: 7.5 µM
- koff [5]: 0.000723 s⁻¹
- kon [5]: 96.7 M⁻¹ s⁻¹
Molecule: forkhead domain of human FoxP1, H59A mutant (domain or fragment)

B1: forkhead domain of human FoxP1, wild type (domain or fragment)
chain: AEVRPPFTYASLIRQAILESPEKQLTLNEIYNWFTRMFAYFRRNAATWKNAVRHNLSLHKCFVRVENVKGAVWTVDEVEFQKRRPQK
- Kd [6]: 31.2 ± 0.3 µM
- koff [6]: 0.00235 s⁻¹
- kon [6]: 58.3 M⁻¹ s⁻¹
- Kd [7]: 13.1 ± 0.2 µM
- koff [7]: 0.000675 s⁻¹
- kon [7]: 51.7 M⁻¹ s⁻¹
- Kd [8]: 3.7 ± 0.3 µM
- koff [8]: 0.000553 s⁻¹
- kon [8]: 150 M⁻¹ s⁻¹
- Kd [9]: 0.8 ± 0.1 µM
- koff [9]: 0.00113 s⁻¹
- kon [9]: 1340 M⁻¹ s⁻¹
- Kd [10]: 0.6 ± 0.1 µM
- koff [10]: 0.00106 s⁻¹
- kon [10]: 1790 M⁻¹ s⁻¹
